These results are taken from patent publication US12337037B2, “Taxol conjugate compounds, pharmaceutical compositions comprising the same, and methods for their use” (N1 Life, Inc, priority 2021, dated 2025).

The nature of data set [1]: Stability in buffer. The class given is physicochemical. Conditions: for half-life at 5 μM: buffer solution, read-out: Mean T 1/2 (converted). As to the method:
Working solutions of Compound 5 (1 mM of) and Compound 3 (1 mM) were prepared. Buffer solution (199 μL) was prepared and divided into fourteen incubation tubes. The tubes were then pre-warmed at 37° C. for 15 minutes. The 1 mM Compound 5 working solution was added to seven incubation tubes (1 μL each) for a final concentration of 5 μM and the 1 mM Compound 3 working solution was added to seven incubation tubes (1 μL each) for a final concentration of 5 μM. For Compound 5, the final concentration of organic solvents was 0.5%. Each samples was incubated at 37° C. for 0, 4, 8, 24, 48, 72, or 120 hours. The assay was performed in duplicate. After incubation for 0, 4, 8, 24, 48, 72 or 120 hours, reactions were quenched by the addition of 1000 μL methanol (pre-cool treatment under 4° C.) with 2% FA containing internal standards. All samples were vortexed for 10 minutes. 150 μL of the supernatant from each sample was transferred to a new plate. 150 μL of pure water was added to each sample for analysis by LC-MS/MS (cooler temperature: 15° C.). All calculations were carried out using Microsoft Excel. Peak area ratios were determined from extracted ion chromatograms. Percent compounds remaining at each time point were calculated by the following equation: Remaining Percentaget min(%)=(Peak Area Ratiot min/Peak Area Ratio0 min)×100
Peak Area Ratiot min is peak area ratio of test compounds at t min; and
Peak Area Ratio0 min is peak area ratio of test compounds at zero time point.
(§1) The slope value, k, was determined by linear regression of the natural logarithm of the remaining percentage of the parent drug vs. incubation time curve.
The in vitro half-life (in vitro t1/2) was determined from the slope value: in vitro t1/2=(0.693/k) Appearance of Taxol concentration (nM)=Peak Area Ratio t min/Peak Area Ratio(Taxol: 5 μM)×5000% Appearance of Taxol=Peak Area Ratio min/Peak Area Ratio(Taxol: 5 μM)×100

Data set [2] is described as follows: Stability in plasma, human. The class given is in vitro ADME. Conditions: for half-life: 37° C., read-out: Mean T1/2 (converted). As to the method: (§2) Working solutions of test compounds were prepared in PBS (pH 7.4). Propantheline was used as positive control for human, monkey, dog and mouse plasma in the assay. Mevinolin was used as positive control for rat plasma in this assay. 1 mM propantheline working solution was prepared in acetonitrile. 1 mM mevinolin working solution was prepared in DMSO. Incubation buffer of 475 μL plasma for each cell was added into the incubation plate and pre-warmed at 37° C. for 15 minutes. After the pre-incubation, 25 μL of working solution (test compounds or control compounds) was spiked to plasma. For Compound 5 and Compound 3, the final concentration of organic concentration was 0%. For Taxol, the final concentration of organic solvents was 0.25%. The assay was performed in duplicate. The reaction samples were incubated at 37° C. Aliquots of 50 μL were taken from the reaction samples at 0, 0.25, 0.5, 1, 2, 4, 6, 8 and 24 hours. The reactions were stopped by the addition of 450 μL of ice-cold quench solution (methanol with 2% FA containing internal standards). All samples were vortexed for 10 minutes, following by centrifugation at 3,220 g for 30 minutes to precipitate proteins. 100 μL of the supernatant from each well was transferred to a new plate. The supernatant was diluted with ultrapure water. Samples were analyzed by LC-MS/MS. All calculations were carried out using Microsoft Excel. Peak area ratios were determined from extracted ion chromatograms. Percent compounds remaining at each time point were calculated by the following equation: Remaining Percentaget min(%)=Peak Area Ratiot min/Peak Area Ratio0 min×100
(§3) Peak Area Ratiot min is peak area ratio of control and test compounds at t min; and
(§4) Peak Area Ratio0 min is peak area ratio of control and test compounds at zero time point.
as §1
(§5) The in vitro half-life (in vitro t1/2) was determined from the slope value: in vitro t1/2=(0.693/k)

A short description of data set [3]: Stability in plasma, dog. Conditions: for half-life: 37° C., read-out: Mean T1/2 (converted). The class given is in vitro ADME. As to the method: as §2, §3, §4, §1, §5
Data set [4] can be described thus: Stability in plasma, rat. The class given is in vitro ADME. The note with it: for half-life: 37° C., read-out: Mean T1/2 (converted). As to the method: as §2, §3, §4, §1, §5
A short description of data set [5]: Stability in plasma, mouse. The class given is in vitro ADME. Conditions: for half-life: 37° C., read-out: Mean T1/2 (converted). As to the method:
as §2, §3, §4, §1, §5

For data set [6], the system named is SKOV-3-GFP cells. Briefly: Elimination of ascites. The class given is in vivo, mice. Conditions: SKOV-3-GFP cells injected into the peritoneal cavity; Compound 3 9.6 mg/kg, Taxol 10 mg/kg. As to the method:
Following the procedure described in Example 5, mice injected with SKOV-3-GFP cells (a cell suspension of 6×10^6/120 μL/mouse or 8×10^6/120 μL/mouse injected into the peritoneal cavity) were also studied for the formation of ascites. Mice were administered vehicle (PBS), Taxol (10 mg/kg), or Compound 3 (9.6 mg/kg).
FIG. 16 and FIG. 18 are images of mice administered vehicle following an injection of SKOV-3-GFP cells (6×10^6/120 μL/mouse or 8×10^6/120 μL/mouse, respectively). […] FIG. 17A and FIG. 17B are images of two mice administered Compound 3 (9.6 mg/kg, equimolar to 2.5 mg/kg Taxol) following an injection of SKOV GFP cells (6×10^6/120 μL/mouse).

Where two headings read alike, the source gives them in different places.

Turning to `CC(=O)N[C@H](CSSCCCC(=O)O[C@@H](C(=O)O[C@H]1C[C@@]2(O)[C@@H](OC(=O)c3ccccc3)[C@@H]3[C@]4(OC(C)=O)CO[C@@H]4C[C@H](O)[C@@]3(C)C(=O)[C@H](OC(C)=O)C(=C1C)C2(C)C)[C@@H](NC(=O)c1ccccc1)c1ccccc1)C(=O)N[C@H](CCCNC(=N)N)C(=O)N[C@H](CCCNC(=N)N)C(=O)N[C@H](CCCNC(=N)N)C(=O)N[C@H](CCCNC(=N)N)C(=O)N[C@H](CCCNC(=N)N)C(=O)N[C@H](CCCNC(=N)N)C(=O)N[C@H](CCCNC(=N)N)C(=O)N[C@H](CCCNC(=N)N)C(N)=O` [Compound 5, Ac-D-Cysteine (paclitaxel-4-mercaptobutanoate)-D-Arginine8-NH2], the half-life at 5 μM was 117 h in data set [1] (buffer pH 5.5, 37° C.); 93.5 h in data set [1] (buffer pH 6.0, 37° C.); 85.4 h in data set [1] (buffer pH 6.5, 37° C.); 49.4 h in data set [1] (buffer pH 7.4, 37° C.). For the same molecule, the half-life in data set [2] was 1.03 h; in data set [3], 2.76 h; in data set [4], 0.3 h; in data set [5], 0.79 h.
With `CC(=O)N[C@@H](CSSCCCC(=O)OC(C(=O)O[C@H]1C[C@@]2(O)[C@@H](OC(=O)c3ccccc3)[C@@H]3[C@]4(OC(C)=O)CO[C@@H]4C[C@H](O)[C@@]3(C)C(=O)[C@H](OC(C)=O)C(=C1C)C2(C)C)[C@@H](NC(=O)c1ccccc1)c1ccccc1)C(=O)N[C@H](CCCNC(=N)N)C(=O)N[C@H](CCCNC(=N)N)C(=O)N[C@H](CCCNC(=N)N)C(=O)N[C@H](CCCNC(=N)N)C(=O)N[C@H](CCCNC(=N)N)C(=O)N[C@H](CCCNC(=N)N)C(=O)N[C@H](CCCNC(=N)N)C(=O)N[C@H](CCCNC(=N)N)C(N)=O` (stereo partly drawn) [Compound 3, Ac-L-Cysteine (paclitaxel-4-mercaptobutanoate)-D-Arginine8-NH2], the “Percent Increase of T1/2, Compound 3 over Compound 5” value was determined as 6.05% in data set [1] (buffer pH 5.5); 6.36% in data set [1] (buffer pH 6.0); 8.01% in data set [1] (buffer pH 6.5); 10.67% in data set [1] (buffer pH 7.4); 18.45% in data set [2]; 1% in data set [3]. Besides, the “Percent Increase of T1/2, Compound 3 over Compound 5” value came out at 50% in data set [4] and 34.18% in data set [5]. For the same molecule, the half-life at 5 μM in data set [1] (buffer pH 5.5, 37° C.) is 125 h; in data set [1] (buffer pH 6.0, 37° C.) it was 99.5 h; in data set [1] (buffer pH 6.5, 37° C.), 92.3 h; in data set [1] (buffer pH 7.4, 37° C.) it was 54.6 h. Also, the half-life in data set [2] is 1.22 h; in data set [3], 2.79 h; in data set [4], 0.45 h; in data set [5], 1.06 h. Besides, in data set [6], the formation of ascites result is on record as “No bloody ascites were observed”.
In the case of `CC(=O)O[C@H]1C(=O)[C@@]2(C)[C@H]([C@H](OC(=O)c3ccccc3)[C@]3(O)C[C@H](OC(=O)[C@H](O)[C@@H](NC(=O)c4ccccc4)c4ccccc4)C(C)=C1C3(C)C)[C@]1(OC(C)=O)CO[C@@H]1C[C@@H]2O` [Taxol, paclitaxel], in data set [6], the formation of ascites result was “formation of malignant as cites”.
